Drawing on paper PMC11098746 (2024), this text covers binding score for ten molecules.

The target of this assay is Circumsporozoite protein (CSP) (Plasmodium falciparum (isolate 3D7), UniProt Q7K740). Briefly: AVEXIS screen signal:noise (double-corrected).
Circumsporozoite protein (CSP), sequence (Q7K740 19-374): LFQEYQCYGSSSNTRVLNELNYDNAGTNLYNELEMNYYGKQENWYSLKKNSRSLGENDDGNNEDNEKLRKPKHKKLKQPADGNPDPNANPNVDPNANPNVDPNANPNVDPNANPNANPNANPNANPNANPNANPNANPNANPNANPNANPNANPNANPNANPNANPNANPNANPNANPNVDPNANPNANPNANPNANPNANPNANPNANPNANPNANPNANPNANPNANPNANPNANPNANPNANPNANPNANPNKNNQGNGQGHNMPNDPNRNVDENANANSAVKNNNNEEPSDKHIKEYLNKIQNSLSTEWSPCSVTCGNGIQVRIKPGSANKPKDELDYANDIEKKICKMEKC

B1: ADP334 (protein)
chain: MASGRDERPPWRLGRLLLLMCLLLLGSSARAAHIKKAEATTTTTSAGAEAAEGQFDRYYHEEELESALREAAAAGLPGLARLFSIGRSVEGRPLWVLRLTAGLGSLIPEGDAGPDAAGPDAAGPLLPGRPQVKLVGNMHGDETVSRQVLIYLARELAAGYRRGDPRLVRLLNTTDVYLLPSLNPDGFERAREGDCGFGDGGPSGASGRDNSRGRDLNRSFPDQFSTGEPPALDEVPEVRALIEWIRRNKFVLSGNLHGGSVVASYPFDDSPEHKATGIYSKTSDDEVFKYLAKAYASNHPIMKTGEPHCPGDEDETFKDGITNGAHWYDVEGGMQDYNYVWANCFEITLELSCCKYPPASQLRQEWENNRESLITLIEKVHIGVKGFVKDSITGSGLENATISVAGINHNITTGRFGDFYRLLVPGTYNLTVVLTGYMPLTVTNVVVKEGPATEVDFSLRPTVTSVIPDTTEAVSTASTVAIPNILSGTSSSYQPIQPKDFHHHHFPDMEIFLRRFANEYPNITRLYSLGKSVESRELYVMEISDNPGVHEPGEPEFKYIGNMHGNEVVGRELLLNLIEYLCKNFGTDPEVTDLVHNTRIHLMPSMNPDGYEKSQEGDSISVIGRNNSNNFDLNRNFPDQFVQITDPTQPETIAVMSWMKSYPFVLSANLHGGSLVVNYPFDDDEQGLATYSKSPDDAVFQQIALSYSKENSQMFQGRPCKNMYPNEYFPHGITNGASWYNVPGGMQDWNYLQTNCFEVTIELGCVKYPLEKELPNFWEQNRRSLIQFMKQVHQGVRGFVLDATDGRGILNATISVAEINHPVTTYKTGDYWRLLVPGTYKITASARGYNPVTKNVTVKSEGAIQVNFTLVRSSTDSNNESKKGKGASSSTNDASDPTTKEFETLIKDLSAENGLESLMLRSSSNLALALYRYHSYKDLSEFLRGLVMNYPHITNLTNLGQSTEYRHIWSLEISNKPNVSEPEEPKIRFVAGIHGNAPVGTELLLALAEFLCLNYKKNPAVTQLVDRTRIVIVPSLNPDGRERAQEKDCTSKIGQTNARGKDLDTDFTNNASQPETKAIIENLIQKQDFSLSVALDGGSMLVTYPYDKPVQTVENKETLKHLASLYANNHPSMHMGQPSCPNKSDENIPGGVMRGAEWHSHLGSMKDYSVTYGHCPEITVYTSCCYFPSAARLPSLWADNKRSLLSMLVEVHKGVHGFVKDKTGKPISKAVIVLNEGIKVQTKEGGYFHVLLAPGVHNIIAIADGYQQQHSQVFVHHDAASSVVIVFDTDNRIFGLP
modifications: bait human Fc-tagged dimer
As for B1, the binding score was 1.2.

B2: ADP096 (protein)
chain: GIQYQTRSPSVCLSEACVSVTSSILSSMDPTVDPCHDFFSYACGGWIKANPVPDGHSRWGTFSNLWEHNQAIIKHLLENSTASVSEAERKAQVYYRACMNETRIEELRAKPLMELIERLGGWNITGPWAKDNFQDTLQVVTAHYRTSPFFSVYVSADSKNSNSNVIQVDQSGLGLPSRDYYLNKTENEKVLTGYLNYMVQLGKLLGGGDEEAIRPQMQQILDFETALANITIPQEKRRDEELIYHKVTAAELQTLAPAINWLPFLNTIFYPVEINESEPIVVYDKEYLEQISTLINTTDRCLLNNYMIWNLVRKTSSFLDQRFQDADEKFMEVMYGTKKTCLPRWKFCVSDTENNLGFALGPMFVKATFAEDSKSIATEIILEIKKAFEESLSTLKWMDEETRKSAKEKADAIYNMIGYPNFIMDPKELDKVFNDYTAVPDLYFENAMRFFNFSWRVTADQLRKAPNRDQWSMTPPMVNAYYSPTKNEIVFPAGILQAPFYTRSSPKALNFGGIGVVVGHELTHAFDDQGREYDKDGNLRPWWKNSSVEAFKRQTECMVEQYSNYSVNGEPVNGRHTLGENIADNGGLKAAYRAYQNWVKKNGAEHSLPTLGLTNNQLFFLGFAQVWCSVRTPESSHEGLITDPHSPSRFRVIGSLSNSKEFSEHFRCPPGSPMNPPHKCEVW
modifications: bait human Fc-tagged dimer
B2 had a binding score of 0.507.

B3: ADP332 (protein)
chain: MAPPGRRECPFPSWRFPGLLLAAMVLLLYSFSDACEEPPTFEAMELIGKPKPYYEIGERVDYKCKKGYFYIPPLATHTICDRNHTWLPVSDDACYRETCPYIRDPLNGQAVPANGTYEFGYQMHFICNEGYYLIGEEILYCELKGSVAIWSGKPPICEKVLCTPPPKIKNGKHTFSEVEVFEYLDAVTYSCDPAPGPDPFSLIGESTIYCGDNSVWSRAAPECKVVKCRFPVVENGKQISGFGKKFYYKATVMFECDKGFYLDGSDTIVCDSNSTWDPPVPKCLKVLPPSSTKPPALSHSVSTSSTTKSPASSASGPRPTYKPPVSNYPGYPKPEEGILDSLDV
modifications: bait human Fc-tagged dimer
The molecule B3 came in with a binding score of 0.982.

B4: ADP293 (protein)
chain: MALLPRLLLLLLLVFPATVLFRGGPRGLLAVAQDLTEDEETVEDSIIEDEDDEAEVEEDEPTDLVEDKEEEDVSGEPEASPSADTTILFVKGEDFPANNIVKFLVGFTNKGTEDFIVESLDASFRYPQDYQFYIQNFTALPLNTVVPPQRQATFEYSFIPAEPMGGRPFGLVINLNYKDLNGNVFQDAVFNQTVTVIEREDGLDGET
modifications: bait human Fc-tagged dimer
On to B4, for which the binding score amounted to 1.28.

B5: ADP383 (protein)
chain: GLKPSCAKEVKSCKGRCFERTFGNCRCDAACVELGNCCLDYQETCIEPEHIWTCNKFRCGEKRLTRSLCACSDDCKDKGDCCINYSSVCQGEKSWVEEPCESINEPQCPAGFETPPTLLFSLDGFRAEYLHTWGGLLPVISKLKKCGTYTKNMRPVYPTKTFPNHYSIVTGLYPESHGIIDNKMYDPKMNASFSLKSKEKFNPEWYKGEPIWVTAKYQGLKSGTFFWPGSDVEINGIFPDIYKMYNGSVPFEERILAVLQWLQLPKDERPHFYTLYLEEPDSSGHSYGPVSSEVIKALQRVDGMVGMLMDGLKELNLHRCLNLILISDHGMEQGSCKKYIYLNKYLGDVKNIKVIYGPAARLRPSDVPDKYYSFNYEGIARNLSCREPNQHFKPYLKHFLPKRLHFAKSDRIEPLTFYLDPQWQLALNPSERKYCGSGFHGSDNVFSNMQALFVGYGPGFKHGIEADTFENIEVYNLMCDLLNLTPAPNNGTHGSLNHLLKNPVYTPKHPKEVHPLVQCPFTRNPRDNLGCSCNPSILPIEDFQTQFNLTVAEEKIIKHETLPYGRPRVLQKENTICLLSQHQFMSGYSQDILMPLWTSYTVDRNDSFSTEDFSNCLYQDFRIPLSPVHKCSFYKNNTKVSYGFLSPPQLNKNSSGIYSEALLTTNIVPMYQSFQVIWRYFHDTLLRKYAEERNGVNVVSGPVFDFDYDGRCDSLENLRQKRRVIRNQEILIPTHFFIVLTSCKDTSQTPLHCENLDTLAFILPHRTDNSESCVHGKHDSSWVEELLMLHRARITDVEHITGLSFYQQRKEPVSDILKLKTHLPTFSQED
modifications: bait human Fc-tagged dimer
In turn, B5 showed a binding score of 0.856.

B6: ADP121 (protein)
chain: MGTLLLVLWLATRGSALYFHIGETEKKCFIEEIPDETMVIGNYRTQLYDKQREEYQPATPGLGMFVEVKDPEDKVILARQYGSEGRFTFTSHTPGEHQICLHSNSTKFSLFAGGMLRVHLDIQVGEHANDYAEIAAKDKLSELQLRVRQLVEQVEQIQKEQNYQRWREERFRQTSESTNQR
modifications: bait human Fc-tagged dimer
B6 had a binding score of 0.979.

B7: ADP319 (protein)
chain: MVSSGCRMRSLWFIIVISFLPNTEGFSRAALPFGLVRRELSCEGYSIDLRCPGSDVIMIESANYGRTDDKICDADPFQMENTDCYLPDAFKIMTQRCNNRTQCIVVTGSDVFPDPCPGTYKYLEVQYECVPYIFVCPGTLKAIVDSPCIYEAEQKAGAWCKDPLQAADKIYFMPWTPYRTDTLIEYASLEDFQNSRQTTTYKLPNRVDGTGFVVYDGAVFFNKERTRNIVKFDLRTRIKSGEAIINYANYHDTSPYRWGGKTDIDLAVDENGLWVIYATEQNNGMIVISQLNPYTLRFEATWETVYDKRAASNAFMICGVLYVVRSVYQDNESETGKNSIDYIYNTRLNRGEYVDVPFPNQYQYIAAVDYNPRDNQLYVWNNNFILRYSLEFGPPDPAQVPTTAVTITSSAELFKTIISTTSTTSQKGPMSTTVAGSQEGSKGTKPPPAVSTTKIPPITNIFPLPERFCEALDSKGIKWPQTQRGMMVERPCPKGTRGTASYLCMISTGTWNPKGPDLSNCTSHWVNQLAQKIRSGENAASLANELAKHTKGPVFAGDVSSSVRLMEQLVDILDAQLQELKPSEKDSAGRSYNKLQKREKTCRAYLKAIVDTVDNLLRPEALESWKHMNSSEQAHTATMLLDTLEEGAFVLADNLLEPTRVSMPTENIVLEVAVLSTEGQIQDFKFPLGIKGAGSSIQLSANTVKQNSRNGLAKLVFIIYRSLGQFLSTENATIKLGADFIGRNSTIAVNSHVISVSINKESSRVYLTDPVLFTLPHIDPDNYFNANCSFWNYSERTMMGYWSTQGCKLVDTNKTRTTCACSHL
modifications: bait human Fc-tagged dimer
Turning to B7, the binding score stood at 1.9.

B8: ADP269 (protein)
chain: SRHQAPCGPQAFAHAAVAADSKVCSDIGRAILQQQGSPVDATIAALVCTSVVNPQSMGLGGGVIFTIYNVTTGKVEVINARETVPASHAPSLLDQCAQALPLGTGAQWIGVPGELRGYAEAHRRHGRLPWAQLFQPTIALLRGGHVVAPVLSRFLHNSILRPSLQASTLRQLFFNGTEPLRPQDPLPWPALATTLETVATEGVEVFYTGRLGQMLVEDIAKEGSQLTLQDLAKFQPEVVDALEVPLGDYTLYSPPPPAGGAILSFILNVLRGFNFSTESMARPEGRVNVYHHLVETLKFAKGQRWRLGDPRSHPKLQNASRDLLGETLAQLIRQQIDGRGDHQLSHYSLAEAWGHGTGTSHVSVLGEDGSAVAATSTINTPFGAMVYSPRTGIILNNELLDLCERCPRGSGTTPSPAVSGDRVGGAPGRCWPPVPGERSPSSMVPSILINKAQGSKLVIGGAGGELIISAVAQAIMSKLWLGFDLRAAIAAPILHVNSKGCVEYEPNFSQEVQRGLQDRGQNQTQRPFFLNVVQAVSQEGACVYAVSDLRKSGEAAGY
modifications: bait human Fc-tagged dimer
With B8, the binding score was determined as 0.734.

B9: ADP395 (protein)
chain: FVNKDQIAKDVKQFYDQALQQAVVDDDANNAKAVVKTFHETLDCCGSSTLTALTTSVLKNNLCPSGSNIISNLFKEDCHQKIDDLFSGK
modifications: bait human Fc-tagged dimer
The molecule B9 gave a binding score of 1.84.

B10: ADP368 (protein)
chain: MERASCLLLLLLPLVHVSATTPEPCELDDEDFRCVCNFSEPQPDWSEAFQCVSAVEVEIHAGGLNLEPFLKRVDADADPRQYADTVKALRVRRLTVGAAQVPAQLLVGALRVLAYSRLKELTLEDLKITGTMPPLPLEATGLALSSLRLRNVSWATGRSWLAELQQWLKPGLKVLSIAQAHSPAFSCEQVRAFPALTSLDLSDNPGLGERGLMAALCPHKFPAIQNLALRNTGMETPTGVCAALAAAGVQPHSLDLSHNSLRATVNPSAPRCMWSSALNSLNLSFAGLEQVPKGLPAKLRVLDLSCNRLNRAPQPDELPEVDNLTLDGNPFLVPGTALPHEGSMN
modifications: bait human Fc-tagged dimer
B10 gave a binding score of 1.29.
